Data from the supplement of paper PMC9170038.

Legend:
MS2 coat protein [1] = assay: apparent KD of MS2 coat protein, switch ON state; designed switch direction (-1 OFF switch, 1 ON switch): 1; higher = weaker reporter binding; conditions: FMN input: 0 or 200 uM; Eterna round: R93 (includes R88 designs)
How it was run: (§1)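 Designed RNA switches were made by on-chip transcription from Illumina sequencing clusters and then titrated with SNAP-549-labelled MS2 coat protein. Twofold steps ran from 0.7 or 1.5 nM to 3 µM, each lasting 0.8–1.5 h early and 10–20 min late, in 100 mM Tris-HCl pH 7.5, 80 mM KCl, 4 mM MgCl2, without or with constant ligand. Apparent KD is the per-design median of normalised cluster binding-curve fits.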

MS2 coat protein [2] = assay: apparent KD of MS2 coat protein, switch OFF state (with FMN for OFF switches, without FMN for ON switches); designed switch direction (-1 OFF switch, 1 ON switch): 1; higher = weaker reporter binding; conditions: FMN input: 0 or 200 uM; Eterna round: R93 (includes R88 designs)
How it was run: as §1

Row | Sequence | apparent KD of MS2 coat protein (MS2 coat protein [1]) [nM] | apparent KD of MS2 coat protein (MS2 coat protein [2]) [nM]
1 | AAAACACAUGAGGAUCACCCAUGUAGAAAUACGGGAGGAUAUGCGAAAACGAAAGACAAAGCAGAAGGCCUAAAAG [saturn 6] | 12.3 | 35
2 | AACUAACAUGAGGAUCACCCAUGUAAUCAAACAUGAGGAUAUAUAACACAUCAUCAACAGAUAGAAGGCAUAAAUA [JR_SS001_Sub1203] | 80.4 | 62.7
3 | GAGAUACAUGAGGAUCACCCAUGUUGAUACAUGGGAGGAUAUACAAGGUCGAAAGAUAAGGUAGAAGGCCUAAAAG [LROPPY Same State 1 - v04_deltaG=3.5] | 47.1 | 15.7
4 | AACCAACAUGAGGAUCACCCAUGUCAACCCAAGCGAGGAUAUCCGAGAAUAACAAUGGGAGGAGAAGGCGCGACCU [ss1] | 38.1 | 39
5 | AUAAAACAUGAGGAUCACCCAUGUAGAAAUAUGGGAGGAUAUACGAGGACGAAAGUCAAAGUAGAAGGCCUAAAAG [Mat - Same State 1 - Meechl mod - D120] | 22.7 | 40.6
6 | GGAAGACAUGAGGAUCACCCAUGUGGGAUUAUGGGAGGAUAUACAAAGACGAGAGUCAGAGUAGAAGGCCUAGGAG [salish99-ss1-122(!)] | 61.1 | 107
7 | CCCUCGCAAUAACAGGAUAUACAUGGUCAAACAUGAGGAUCACCCAUGUGAGGAAGUUGGCGGUCGUAGAAGGGUUGUUGGCUCA [Beisvesoqu] | 42.8 | 166
8 | AGAAAUAAAAGAGAGGAUAUGCAAAAGAUAACAUGAGGAUCACCCAUGUAAAAGAAAAUAAAUGGGUAGAAGGCUCAAAAUAAGA [Jieux modified] | 86.4 | 64.9
9 | GGCUGCAAUUAUGAGGAUAUGUUCGGAUGAACAUGAGGAUCACCCAUGUGGCGAUAGCUAUCUGUGCAGAAGGUGUAGUGGUAGC [Edlexete] | 38.8 | 130
10 | AAAAAAAAAAGUGAGGAUAUGGGAAAAUUAACAUGAGGAUCACCCAUGUGAUAAAAAAAAAAAAACCAGAAGGUACAAAAAAAAAA [Same 2] | 26.1 | 35
11 | AAAAAAAAAAGUCAGGAUAUACAAAUUUUUACAUGAGGAUCACCCAUGUUAAGGAAAAAAAAAAAGUAGAAGGGACAAAAAAAAAA [Same State 2 - Omei 3] | 15.3 | 21.4
12 | AAUAAACAUGAGGAUCACCCAUGUAGAAAUAUGGGAGGAUAUACAAAGACGAAAGUCAAAGUAGAAGGCCUAAUAA [Mat - Same State 1 - Mod - D153] | 18 | 58.5
13 | GAAAUACAUGAGGAUCACCCAUGUUAGGUGGGUCAAGGAUAUUGAGAUAAAUAAAAAUCUCGAGAAGGUGAAUAAA [JR_SS001_Sub202] | 87.7 | 199
14 | AAAAGACAUGAGGAUCACCCAUGUAAAAACAUAGGAGGAUAUGUCUUGAAAAAAGACUUGACAGAAGGCCUUUGUC [SS1 - 52] | 39.5 | 75.2
15 | AAAAAAUAAAAAAAGGAUAUAAUGCUACAGACAUGAGGAUCACCCAUGUAGGUAGCAAAAAUAAAAAAGAAGGAAAAAUAAAAAA [SS2: MS2 31] | 11.4 | 13.1
16 | AAAGAAAAACUAGAGGAUAUCCGAGUGGUAACAUGAGGAUCACCCAUGUGACGAAAGGAACAUGAGGAGAAGGCUAGAAGAAAAA [JL Nando mod 9] | 46.3 | 315

Row | Sequence | apparent KD of MS2 coat protein (MS2 coat protein [1]) [nM] | apparent KD of MS2 coat protein (MS2 coat protein [2]) [nM]
17 | AAAUAAAUGACUAAGGAUAUCUCAGAGAAAACAUGAGGAUCACCCAUGUAAUAAUAACAUGUGUGAGAGAAGGUAGUCAACAAAC [Same State 2.4 (Pariah 4 -changed stack on 9nt hairpin)] | 16.1 | 70.1
18 | AAGUCACAUGAGGAUCACCCAUGUCGUAAACGAUGAGGAUAUAGGAAAAAAAAAAAAAAACUAGAAGGUAUAACAA [SameState1-01] | 35 | 38.5
19 | AAAUAAAUGACUCAGGAUAUAUCAUAGGGUACAUGAGGAUCACCCAUGUUUUAAUAACAUGUUUGGUAGAAGGGAGUCAAUAAAU [LROPPY Same State 2 - v07_deltaG=1.69] | 85.1 | 133
20 | UAGCAGUGCGGGUAGGAUAUGUAGGGUGGUACAUGAGGAUCACCCAUGUAUCCACCCUUCGACCGGCAGAAGGGCCUGUCACUGC [Edor] | 17.9 | 16.9
21 | UAUCCGGCAGUGUAGGAUAUGUUGUAGUCAACAUGAGGAUCACCCAUGUGGAUUAUAUAAGAUUCACAGAAGGGCACUGCAUUGC [Geiner] | 87.8 | 74.1
22 | AAAUAAAUGACUCAGGAUAUAUCAGAGAAAACAUGAGGAUCACCCAUGUAAUAAUAACAUGUGUGGUAGAAGGGAGUCAAUAAAU [LROPPY Same State 2 - v03_deltaG=2.1] | 13.5 | 49.3
23 | AGAAUAAAAAGACAGGAUAUCCAAAAAAAAACAUGAGGAUCACCCAUGUAAAAAAAAUAAAAAUGGGAGAAGGGUCAAAAUAAGA [Mat - Same State 2 - JL mod - D64] | 19.9 | 35.9
24 | AAAAGACAUGAGGAUCACCCAUGUCAAAAGACAUGAGGAUAUGUACAGACUUCGGUCUGUACAGAAGGCAUAAAAA [SS1 - 1060] | 18.6 | 32.5
25 | AUAAAACAUGAGGAUCACCCAUGUAGAAAUAUGGGAGGAUAUACUAGAUCGAAAGAUCUAGUAGAAGGCCUUUAAG [JL Mod of Eli 4] | 29.6 | 49.9
26 | AAACCACAUGAGGAUCACCCAUGUAAAAAUAUGGGAGGAUAUCGGAAUAAAAUAAAGAAACGAGAAGGCCUAAAAG [59%, Flamingo, 4] | 69.3 | 292
27 | AGGAAACAUGAGGAUCACCCAUGUAAAAAAUGGGUAGGAUAUGCGAAAAGAAAAAGAAAAGCAGAAGGGCCAAGAA [62%, Something completely different, 3] | 46 | 444
28 | AUAAUAAGAAGCUAGGAUAUGCUAAAGUAAACAUGAGGAUCACCCAUGUAAAGAAAAAAACUCAUGUAGAAGGAGCAGAAAUAAA [moonwalk 6] | 99.1 | 106
29 | AAAAAAAAAACGCAGGAUAUCCAAAAAAAAACAUGAGGAUCACCCAUGUAAAAAAAAAAAAAAUGGGAGAAGGGUGAAAAAAAAAA [Louisiana 6 - Jieux - Same State 2] | 49.9 | 114
30 | AAAUAAAGGACUAAGGAUAUAUCACAUGAAACAUGAGGAUCACCCAUGUAAUAAUACAAAGGGUGAUAGAAGGUAGUCCACAAACA [Pariah 5 (MS2 Riboswitches - Same State 2)] | 14.9 | 37.1
31 | AGAAGACAUGAGGAUCACCCAUGUGGGAUUAUGGGAGGAUAUACAAAGACGAGAGUCAGAGUAGAAGGCCUAGGAA [salish99-ss1-112(!!!!!)] | 29 | 70.5
32 | AACAUACAUGAGGAUCACCCAUGUUCCGGCAGGACAGGAUAUACAUCGAAAGUGUUAUAAGUAGAAGGGUCAUAAA [JR_SS001_Sub012] | 56.7 | 66.5
